Source: US20120316071A1 (published 2012)
Residue numbers refer to the chain shown, from its start. Names may count otherwise.

B1: Fab VH1-46_IGHD6-6*01_IGHJ1*01 S102A/S103P/S104F/H111F S54I & L6_IGKJ1*01 (Fab, V domains shown)
VH: QVQLVQSGAEVKKPGASVKVSCKASGYTFTSYYMHWVRQAPGQGLEWMGIINPIGGSTSYAQKFQGRVTMTRDTSTSTVYMELSSLRSEDTAVYYCAREEYAPFSAEYFQFWGQGTLVTVSS
VL: not shown
notes: Fab from E. coli; CH1 (with His and Flag tags) and kappa CL come from the expression plasmids; also called APFF S54I
B2: Fab VH1-46_IGHD6-6*01_IGHJ1*01 S102A/S103P/S104F/H111F G56V & L6_IGKJ1*01 (Fab, V domains shown)
VH: B1 VH with I54S, G56V
VL: not shown
notes: Fab from E. coli; CH1 (with His and Flag tags) and kappa CL come from the expression plasmids; also called APFF G56V
B3: Fab VH1-46_IGHD6-6*01_IGHJ1*01 S102A/S103P/S104F/H111F N52L & L6_IGKJ1*01 (Fab, V domains shown)
VH: B1 VH with N52L, I54S
VL: not shown
notes: Fab from E. coli; CH1 (with His and Flag tags) and kappa CL come from the expression plasmids; also called APFF N52L
B4: Fab VH1-46_IGHD6-6*01_IGHJ1*01 S102A/S103P/S104F/H111F N52Q & L6_IGKJ1*01 (Fab, V domains shown)
VH: B1 VH with N52Q, I54S
VL: not shown
notes: Fab from E. coli; CH1 (with His and Flag tags) and kappa CL come from the expression plasmids; also called APFF N52Q
B5: Fab VH1-46_IGHD6-6*01_IGHJ1*01 S102A/S103P/S104F/H111F N52W & L6_IGKJ1*01 (Fab, V domains shown)
VH: B1 VH with N52W, I54S
VL: not shown
notes: Fab from E. coli; CH1 (with His and Flag tags) and kappa CL come from the expression plasmids; also called APFF N52W
B6: Fab VH1-46_IGHD6-6*01_IGHJ1*01 S102A/S103P/S104F/H111F G56T & L6_IGKJ1*01 (Fab, V domains shown)
VH: B1 VH with I54S, G56T
VL: not shown
notes: Fab from E. coli; CH1 (with His and Flag tags) and kappa CL come from the expression plasmids; also called APFF G56T
B7: Fab VH1-46_IGHD6-6*01_IGHJ1*01 S102A/S103P/S104F/H111F N52A & L6_IGKJ1*01 (Fab, V domains shown)
VH: B1 VH with N52A, I54S
VL: not shown
notes: Fab from E. coli; CH1 (with His and Flag tags) and kappa CL come from the expression plasmids; also called APFF N52A
B8: Fab VH1-46_IGHD6-6*01_IGHJ1*01 S102A/S103P/S104F/H111F N52K & L6_IGKJ1*01 (Fab, V domains shown)
VH: B1 VH with N52K, I54S
VL: not shown
notes: Fab from E. coli; CH1 (with His and Flag tags) and kappa CL come from the expression plasmids; also called APFF N52K
B9: Fab VH1-46_IGHD6-6*01_IGHJ1*01 S102A/S103P/S104F/H111F N52G & L6_IGKJ1*01 (Fab, V domains shown)
VH: B1 VH with N52G, I54S
VL: not shown
notes: Fab from E. coli; CH1 (with His and Flag tags) and kappa CL come from the expression plasmids; also called APFF N52G
B10: Fab VH1-46_IGHD6-6*01_IGHJ1*01 S102A/S103P/S104F/H111F N52S & L6_IGKJ1*01 (Fab, V domains shown)
VH: B1 VH with N52S, I54S
VL: not shown
notes: Fab from E. coli; CH1 (with His and Flag tags) and kappa CL come from the expression plasmids; also called APFF N52S
B11: Fab VH1-46_IGHD6-6*01_IGHJ1*01 S102A/S103P/S104F/H111F G56R & L6_IGKJ1*01 (Fab, V domains shown)
VH: B1 VH with I54S, G56R
VL: not shown
notes: Fab from E. coli; CH1 (with His and Flag tags) and kappa CL come from the expression plasmids; also called APFF G56R
B12: Fab VH1-46_IGHD6-6*01_IGHJ1*01 S102A/S103P/S104F/H111F (APFF) & L6_IGKJ1*01 S28M (Fab, V domains shown)
VH: B1 VH with I54S
VL: EIVLTQSPATLSLSPGERATLSCRASQMVSSYLAWYQQKPGQAPRLLIYDASNRATGIPARFSGSGSGTDFTLTISSLEPEDFAVYYCQQRSNWPPWTFGQGTKVEIKR
notes: Fab expressed in E. coli: VH joined to CH1 (Plasmid A, His6 and Flag tags), VL joined to kappa CL (Plasmid C); also called APFF S28M
B13: Fab VH1-46_IGHD6-6*01_IGHJ1*01 S102A/S103P/S104F/H111F (APFF) & L6_IGKJ1*01 S28I (Fab, V domains shown)
VH: B1 VH with I54S
VL: B12 VL with M28I
notes: Fab expressed in E. coli: VH joined to CH1 (Plasmid A, His6 and Flag tags), VL joined to kappa CL (Plasmid C); also called APFF S28I
B14: Fab VH1-46_IGHD6-6*01_IGHJ1*01 S102A/S103P/S104F/H111F (APFF) & L6_IGKJ1*01 S28L (Fab, V domains shown)
VH: B1 VH with I54S
VL: B12 VL with M28L
notes: Fab expressed in E. coli: VH joined to CH1 (Plasmid A, His6 and Flag tags), VL joined to kappa CL (Plasmid C); also called APFF S28L
B15: Fab VH1-46_IGHD6-6*01_IGHJ1*01 S102A/S103P/S104F/H111F (APFF) & L6_IGKJ1*01 S28E (Fab, V domains shown)
VH: B1 VH with I54S
VL: B12 VL with M28E
notes: Fab expressed in E. coli: VH joined to CH1 (Plasmid A, His6 and Flag tags), VL joined to kappa CL (Plasmid C); also called APFF S28E
B16: Fab VH1-46_IGHD6-6*01_IGHJ1*01 S102A/S103P/S104F/H111F (APFF) & L6_IGKJ1*01 S28A (Fab, V domains shown)
VH: B1 VH with I54S
VL: B12 VL with M28A
notes: Fab expressed in E. coli: VH joined to CH1 (Plasmid A, His6 and Flag tags), VL joined to kappa CL (Plasmid C); also called APFF S28A
B17: Fab VH1-46_IGHD6-6*01_IGHJ1*01 S102A/S103P/S104F/H111F (APFF) & L6_IGKJ1*01 S28N (Fab, V domains shown)
VH: B1 VH with I54S
VL: B12 VL with M28N
notes: Fab expressed in E. coli: VH joined to CH1 (Plasmid A, His6 and Flag tags), VL joined to kappa CL (Plasmid C); also called APFF S28N
B18: Fab VH1-46_IGHD6-6*01_IGHJ1*01 S102A/S103P/S104F/H111F (APFF) & L6_IGKJ1*01 S28H (Fab, V domains shown)
VH: B1 VH with I54S
VL: B12 VL with M28H
notes: Fab expressed in E. coli: VH joined to CH1 (Plasmid A, His6 and Flag tags), VL joined to kappa CL (Plasmid C); also called APFF S28H
B19: Fab VH1-46_IGHD6-6*01_IGHJ1*01 S102A/S103P/S104F/H111F (APFF) & L6_IGKJ1*01 S28P (Fab, V domains shown)
VH: B1 VH with I54S
VL: B12 VL with M28P
notes: Fab expressed in E. coli: VH joined to CH1 (Plasmid A, His6 and Flag tags), VL joined to kappa CL (Plasmid C); also called APFF S28P

biological target: T1, Recombinant Human DLL4 (delta-like protein 4) (human, UniProt Q9NR61 27-524); assay: ELISA on plate-coated DLL4, 100 nM Fab
T1 construct: Bought recombinant protein (R&D Systems Cat#1506-D4/CF); also called rHuman DLL4

Row | Binder | ELISA signal
1 | B1 | 0.03
2 | B2 | 0.23
3 | B3 | 1.06
4 | B4 | 0.1
5 | B5 | 0.42
6 | B6 | 0.2
7 | B7 | 0.12
8 | B8 | 0.45
9 | B9 | 0.47
10 | B10 | 0.28
11 | B11 | 0.2

biological target: T1, Recombinant Human DLL4 (delta-like …); assay: ECL 96-well plate assay on immobilised DLL4, 10 nM Fab

Row | Binder | ECL signal
12 | B1 | 18400
13 | B2 | 68600
14 | B3 | 75500
15 | B4 | 60600
16 | B5 | 87000
17 | B6 | 60700
18 | B7 | 52500
19 | B8 | 67100
20 | B9 | 55600
21 | B10 | 62200
22 | B11 | 64300

biological target: T2, Recombinant Human DLL4 (R&D Systems Cat#1506-D4/CF) (human, UniProt Q9NR61 27-524); assay: ECL multispot (MSD) binding assay, DLL4 signal over blank spot; Fab concentration not given
T2 construct: Bought recombinant protein; also called delta-like protein 4; rHuman DLL4

Row | Binder | Signal/Blank
23 | B12 | 336
24 | B13 | 309
25 | B14 | 220
26 | B15 | 439
27 | B16 | 472
28 | B17 | 778
29 | B18 | 609
30 | B19 | 454

biological target: T2, Recombinant Human DLL4 (R&D Systems …); assay: ECL multispot (MSD) binding assay, DLL4 spotted on plate, purified Fab in solution; Fab concentration not given

Row | Binder | ECL signal
31 | B12 | 108000
32 | B13 | 106000
33 | B14 | 72300
34 | B15 | 184000
35 | B16 | 157000
36 | B17 | 204000
37 | B18 | 209000
38 | B19 | 178000
